Data taken from patent US20250361320A1 (Bristol-Myers Squibb, published 2025).
Residue numbers refer to the chain shown, from its start.

T1: cynomolgus CEACAM5 on cells (HCT116-cyCEACAM5) (cynomolgus (Macaca fascicularis))
T1 construct: also called cynoCEACAM-5
T1 chain: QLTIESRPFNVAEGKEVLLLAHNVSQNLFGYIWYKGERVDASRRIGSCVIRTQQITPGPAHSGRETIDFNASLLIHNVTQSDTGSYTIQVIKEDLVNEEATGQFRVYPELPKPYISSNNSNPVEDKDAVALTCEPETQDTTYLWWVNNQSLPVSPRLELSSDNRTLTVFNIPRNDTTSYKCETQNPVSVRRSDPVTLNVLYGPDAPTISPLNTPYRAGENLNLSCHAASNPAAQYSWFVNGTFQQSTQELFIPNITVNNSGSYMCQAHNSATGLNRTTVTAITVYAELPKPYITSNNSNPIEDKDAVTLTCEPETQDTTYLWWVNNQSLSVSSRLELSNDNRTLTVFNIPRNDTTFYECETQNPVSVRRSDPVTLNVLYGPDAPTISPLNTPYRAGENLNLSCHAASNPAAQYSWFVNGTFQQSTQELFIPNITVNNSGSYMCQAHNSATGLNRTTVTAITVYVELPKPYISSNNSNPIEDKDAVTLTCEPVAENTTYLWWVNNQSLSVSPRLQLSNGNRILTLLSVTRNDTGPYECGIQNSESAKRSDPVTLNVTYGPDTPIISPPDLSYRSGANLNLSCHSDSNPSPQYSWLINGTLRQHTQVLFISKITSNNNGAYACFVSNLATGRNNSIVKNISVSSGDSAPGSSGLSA

T2: human CEACAM5 on cells (MKN45, BxPC-3, Ls174T, HCT116-huCEACAM5) (human, UniProt P06731 35-685)
T2 sequence: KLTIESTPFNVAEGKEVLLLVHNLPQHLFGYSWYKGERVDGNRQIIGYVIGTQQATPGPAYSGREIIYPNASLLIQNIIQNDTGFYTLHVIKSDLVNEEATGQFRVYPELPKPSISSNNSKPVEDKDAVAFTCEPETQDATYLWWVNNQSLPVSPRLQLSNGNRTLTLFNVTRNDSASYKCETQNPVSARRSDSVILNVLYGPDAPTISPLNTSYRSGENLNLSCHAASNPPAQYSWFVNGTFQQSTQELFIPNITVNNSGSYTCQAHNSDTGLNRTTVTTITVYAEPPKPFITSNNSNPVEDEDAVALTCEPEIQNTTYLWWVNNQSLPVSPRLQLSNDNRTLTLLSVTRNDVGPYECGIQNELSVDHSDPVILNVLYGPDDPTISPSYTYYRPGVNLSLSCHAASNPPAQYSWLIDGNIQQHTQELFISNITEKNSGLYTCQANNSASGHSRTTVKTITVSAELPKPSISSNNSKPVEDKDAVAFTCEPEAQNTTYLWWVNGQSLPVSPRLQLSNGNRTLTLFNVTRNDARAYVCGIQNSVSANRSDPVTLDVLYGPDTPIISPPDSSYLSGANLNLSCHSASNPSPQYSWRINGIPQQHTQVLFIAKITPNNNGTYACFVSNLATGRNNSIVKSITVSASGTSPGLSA

B1: anti-CEACAM5 mAb MBN001 (antibody, V domains shown)
VH: QVQLVETGGGVVQPGRSLRLSCAASGITFSSHGMHWVRQSPGKGLEWVTFISYDGSYKSYVDSVKGRFAISRDNSKNTLYLQMNSLRPEDTAVYYCATGLTGTGAFDIWGQGTMVTVSS
VL: not shown
notes: also called MBN001 parent; bin 1 lead
B2: MBP003 (hIgG1 progeny of MBN001) (antibody, V domains shown)
VH: B1 VH with T7S, S40A, A69T, P88A
VL: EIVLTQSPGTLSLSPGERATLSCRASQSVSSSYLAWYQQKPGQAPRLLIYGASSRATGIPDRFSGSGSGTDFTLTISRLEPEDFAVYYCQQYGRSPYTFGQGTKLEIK
B3: MBP005 (hIgG1.3f progeny of MBN001) (antibody, V domains shown)
VH: B1 VH with T7S, T28Y, S40A, A69T, P88A
VL: not shown
B4: MBP006 (hIgG1.3f progeny of MBN001) (antibody, V domains shown)
VH: B1 VH with T7S, S40A, K58I, A69T, P88A, F106N
VL: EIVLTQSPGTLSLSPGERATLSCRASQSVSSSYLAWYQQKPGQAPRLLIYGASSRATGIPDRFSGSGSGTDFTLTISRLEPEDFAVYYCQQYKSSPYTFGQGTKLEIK
B5: MBP007 (hIgG1.3f progeny of MBN001) (antibody, V domains shown)
VH: B1 VH with T7S, T28Y, S40A, A69T, P88A, F106N
VL: EIVLTQSPGTLSLSPGERATLSCRASQSVSSSYLAWYQQKPGQAPRLLIYGASSRATGIPDRFSGSGSGTDFTLTISRLEPEDFAVYYCQQNKPSPYTFGQGTKLEIK
B6: MBP008 (hIgG1.3f progeny of MBN001) (antibody, V domains shown)
VH: B1 VH with T7S, S40A, A69T, P88A, G104N, F106L
VL: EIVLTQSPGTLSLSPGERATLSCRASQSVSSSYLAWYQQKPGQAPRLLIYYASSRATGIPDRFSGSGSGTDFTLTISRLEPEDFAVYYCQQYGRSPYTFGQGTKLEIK
B7: MBP009 (hIgG1.3f progeny of MBN001) (antibody, V domains shown)
VH: B1 VH with T7S, T28Y, S40A, A69T, P88A
VL: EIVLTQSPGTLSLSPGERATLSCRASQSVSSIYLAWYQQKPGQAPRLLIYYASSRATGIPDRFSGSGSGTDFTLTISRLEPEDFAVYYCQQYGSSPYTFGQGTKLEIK
B8: MBP010 (hIgG1.3f progeny of MBN001) (antibody, V domains shown)
VH: B1 VH with T7S, S40A, G55S, A69T, P88A
VL: B5 VL with P94R
B9: MBP011 (hIgG1.3f progeny of MBN001) (antibody, V domains shown)
VH: B1 VH with T7S, S40A, Y57I, A69T, P88A
VL: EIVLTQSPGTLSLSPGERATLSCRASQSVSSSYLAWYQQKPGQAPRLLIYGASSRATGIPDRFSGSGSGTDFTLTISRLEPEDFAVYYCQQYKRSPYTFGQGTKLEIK
B10: MBP002 (hIgG1 progeny of MBN001) (antibody, V domains shown)
VH: B1 VH with T7S, S40A, A69T, P88A, G104N, F106L
VL: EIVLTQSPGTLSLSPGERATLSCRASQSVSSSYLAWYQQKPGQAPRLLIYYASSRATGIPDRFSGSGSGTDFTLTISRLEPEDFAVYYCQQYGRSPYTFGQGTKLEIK
B11: MBP004 (hIgG1.3f progeny of MBN001) (antibody, V domains shown)
VH: B1 VH with T7S, S40A, A69T, P88A
VL: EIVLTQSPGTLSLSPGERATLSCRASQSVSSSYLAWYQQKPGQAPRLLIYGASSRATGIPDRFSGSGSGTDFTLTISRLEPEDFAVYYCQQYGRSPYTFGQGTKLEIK

Target: T1, cynomolgus CEACAM5 on cells …
Assay: cell binding, HCT-116 cyCEACAM5 cells

Which EC50 does the source give for B1 here?
Its EC50 is 82.2 nM.

Target: T2, human CEACAM5 on cells (MKN45, BxPC-3, …)
Assay: cell-based or functional assay

What does the source list for B2?
Ls174T 5-day cytotoxicity (AUC), antibody with cytotoxic payload: 18500; MKN45 5-day cytotoxicity (AUC), antibody with cytotoxic payload: 24400

How did the “Ls174T 5-day cytotoxicity (AUC), antibody with cytotoxic payload” value (“Ls174T 5-day cytotoxicity (AUC)” below) turn out when B3 was run?
Its value is 964.

What about the “MKN45 5-day cytotoxicity (AUC), antibody with cytotoxic payload” value (shortened to “MKN45 5-day cytotoxicity (AUC), antibody”) of the same binder?
The value was 2350.

B4 was tested. Which “Ls174T 5-day cytotoxicity (AUC)” value did it give?
The value was 902.

And the “MKN45 5-day cytotoxicity (AUC), antibody” value?
The value was 2440.

How did the “Ls174T 5-day cytotoxicity (AUC)” value turn out when B5 was run?
The value was 834.

And the “MKN45 5-day cytotoxicity (AUC), antibody” value?
The value was 2070.

B6 was tested. Which “Ls174T 5-day cytotoxicity (AUC)” value did it give?
Its value is 1140.

What about the “MKN45 5-day cytotoxicity (AUC), antibody” value of the same binder?
The value was 2200.

What does the source list for B7?
Ls174T 5-day cytotoxicity (AUC), antibody with cytotoxic payload: 1040; MKN45 5-day cytotoxicity (AUC), antibody with cytotoxic payload: 2200

B8 was tested. Which “Ls174T 5-day cytotoxicity (AUC)” value did it give?
The value was 910.

And the “MKN45 5-day cytotoxicity (AUC), antibody” value?
Its value is 1360.

With B9 as the binder, how does the “Ls174T 5-day cytotoxicity (AUC)” value read?
Its value is 939.

What about the “MKN45 5-day cytotoxicity (AUC), antibody” value of the same binder?
The value was 1770.

B10 was tested. Which “Ls174T 5-day cytotoxicity (AUC)” value did it give?
Its value is 18900.

What about the “MKN45 5-day cytotoxicity (AUC), antibody” value of the same binder?
Its value is 24100.

With B11 as the binder, how does the “Ls174T 5-day cytotoxicity (AUC)” value read?
The value was 865.

And the “MKN45 5-day cytotoxicity (AUC), antibody” value?
Its value is 2380.
